# Tests used:
# [1] = target: T1, human chemokine (C-C motif) receptor 8 (CCR8) (human, UniProt P51685 1-355); assay: flow cytometry blocking, PBMC CCR8+ CD4+ cells; competitor PE-AB4 (its MFI is read)
# T1 construct: On human peripheral blood lymphocytes / PBMC (native) or on human CCR8 GFP-transfected Ba/F3 cells; also called hCCR8; human CCR8
# Procedure: (§1) For blocking studies, 100 μL of the cell suspension were incubated with 10 μg purified isotype control, AB1, AB2, AB3, AB4, AB5, AB8, AB9, AB10, AB11, AB12, AB13, AB14, AB15, and Commercial ABI antibodies, or isotype control, as blocking agents.
# (§2) After incubation with the blocking agent, the cells were incubated with 0.25 μg of the indicated PE-conjugated antibody plus anti-human CD4 APC or anti-human CD3 for another 15 minutes in the dark and then washed 2 times with Cell Staining Buffer, and acquired in a FACSCanto II flow cytometer (BD Biosciences); the data was analyzed using FCS Express (De Novo Software); MFI correspond to the CCR8+ CD4+ lymphocytes or CCR8+ CD3+ lymphocytes.
# (§3) Percentage original MFI was calculated by dividing the MFI of samples blocked with AB1, AB2, AB3, AB4, AB5, AB6, AB7, AB8, AB9, AB10, AB11, AB12, AB13, AB14, AB15, and Commercial ABI antibodies, by the MFI of samples blocked with the corresponding isotype control. This value was subtracted from 100 to get a blocking percentage. The formula is shown below: […]
# [2] = target: T1, human chemokine (C-C motif) receptor 8 …; assay: flow cytometry blocking, PBMC CCR8+ CD4+ cells; competitor PE-AB3 (its MFI is read)
# Procedure: as §1, §2, §3
# [3] = target: T1, human chemokine (C-C motif) receptor 8 …; assay: flow cytometry blocking, PBMC CCR8+ CD4+ cells; competitor PE-AB6 (its MFI is read)
# Procedure: as §1, §2, §3
# [4] = target: T1, human chemokine (C-C motif) receptor 8 …; assay: flow cytometry blocking, PBMC CCR8+ CD4+ cells; competitor PE-AB14 (its MFI is read)
# Procedure: as §1, §2, §3
# [5] = target: T1, human chemokine (C-C motif) receptor 8 …; assay: flow cytometry blocking, PBMC CCR8+ CD4+ cells; competitor PE-AB13 (its MFI is read)
# Procedure: as §1, §2, §3
# [6] = target: T1, human chemokine (C-C motif) receptor 8 …; assay: flow cytometry blocking, PBMC CCR8+ CD4+ cells; competitor PE-AB11 (its MFI is read)
# Procedure: as §1, §2, §3
# [7] = target: T1, human chemokine (C-C motif) receptor 8 …; assay: flow cytometry blocking, PBMC CCR8+ CD4+ cells; competitor PE-AB12 (its MFI is read)
# Procedure: as §1, §2, §3
# [8] = target: T1, human chemokine (C-C motif) receptor 8 …; assay: flow cytometry blocking, PBMC CCR8+ CD4+ cells; competitor PE-AB10 (its MFI is read)
# Procedure: as §1, §2, §3
# [9] = target: T1, human chemokine (C-C motif) receptor 8 …; assay: flow cytometry blocking, PBMC CCR8+ CD4+ cells; competitor PE-AB15 (its MFI is read)
# Procedure: as §1, §2, §3
# [10] = target: T1, human chemokine (C-C motif) receptor 8 …; assay: cell-based or functional assay
# [11] = target: T1, human chemokine (C-C motif) receptor 8 …; assay: flow cytometry blocking, PBMC CCR8+ CD4+ cells; competitor PE-AB5 (its MFI is read)
# Procedure: as §1, §2, §3
# [12] = target: T1, human chemokine (C-C motif) receptor 8 …; assay: flow cytometry blocking, PBMC CCR8+ CD4+ cells; competitor PE-AB2 (its MFI is read)
# Procedure: as §1, §2, §3
# [13] = target: T1, human chemokine (C-C motif) receptor 8 …; assay: flow cytometry blocking, PBMC CCR8+ CD4+ cells; competitor PE-ABII (its MFI is read)
# Procedure: as §1, §2, §3
# [14] = target: T1, human chemokine (C-C motif) receptor 8 …; assay: flow cytometry blocking, PBMC CCR8+ CD4+ cells; competitor PE-AB1 (its MFI is read)
# Procedure: as §1, §2, §3
# T1 sequence (P51685 whole entry): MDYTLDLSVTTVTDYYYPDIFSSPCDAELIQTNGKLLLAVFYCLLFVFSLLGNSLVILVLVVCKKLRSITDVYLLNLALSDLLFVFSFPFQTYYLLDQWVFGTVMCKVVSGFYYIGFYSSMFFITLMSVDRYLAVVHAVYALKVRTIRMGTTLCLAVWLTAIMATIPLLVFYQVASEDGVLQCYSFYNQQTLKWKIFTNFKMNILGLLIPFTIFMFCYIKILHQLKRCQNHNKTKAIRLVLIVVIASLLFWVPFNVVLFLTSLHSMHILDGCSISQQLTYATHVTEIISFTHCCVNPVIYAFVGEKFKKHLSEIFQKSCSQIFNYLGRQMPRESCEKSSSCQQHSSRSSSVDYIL
Binder,% Blocking [1] [%],MFI [1],% Blocking [2] [%],MFI [2],% Blocking [3] [%],MFI [3],% Blocking [4] [%],MFI [4],% Blocking [5] [%],MFI [5],% Blocking [6] [%],MFI [6],% Blocking [7] [%],MFI [7],% Blocking [8] [%],MFI [8],% Blocking [9] [%],MFI [9],% hCCR8-Ba/F3 - THP-1 complexes [10] [%],% Blocking [11] [%],other results
"AB8 (antibody, V domains shown, Hybridoma monoclonal; also called antibody 8; clone 8) VH: AVQLVESGGGLVQPKESLKISCAASGFIFSNAAMYWVRQAPGKGLQWVARIRTKPKNYATYYIDSVKGRFTISRDDSKSMVYLQMDNLKTEDTAMYYCNTMGLTRAYYFDYWGQGVMVTVSS VL: DIQMTQSPSFLSASVGDRVTINCKASQNINRYLNWYQQKLGEAPKLLIYNANSLQTGIPSRFSGSGSGTDFTLTIRSLQPEDVATYFCLQHNSWPWTFGGGTKLELK",-40.9,962,-43.3,994,-20.4,944,6.78,826,33.4,623,40.4,537,20.8,773,-81.3,1830,-56.6,1240,1.78,-27.2,MFI [11]: 953; % Blocking [12]: -42.4%; MFI [12]: 953; % Blocking [13]: 27%; MFI [13]: 808; % Blocking [14]: -49.5%; MFI [14]: 980
"AB2 (antibody, V domains shown, Hybridoma monoclonal; also called antibody 2; clone 2) VH: QVQLKESGPGLVKPSETLSLTCTVSGFSLTSYHISWVRQPPGKGLEWMGVIWGDGSKTYNSALKSRLSISRDTSKSQVFLKMRSLKTEDTATYYCARGGDSGFAYWGQGTLVTVSS VL: DIQMTQSPASLSASLEEIVTITCQASQDIGNWLSWYQQKPGKSPQLLIYGTTNLADGVPSRFSGSRSGTQYSLKISRLQVEDIGIYYCLQAYSVPLTFGSGTKLEIK",16.2,572,42.4,399,45.9,424,2.39,865,8.25,859,-7.68,971,-9.94,1070,-8.07,1090,-7.83,855,0.48,36.7,MFI [11]: 475; % Blocking [12]: 26.7%; MFI [12]: 491; % Blocking [13]: 0.77%; MFI [13]: 1100; % Blocking [14]: 13.5%; MFI [14]: 567
"AB5 (antibody, V domains shown, Hybridoma monoclonal; also called antibody 5; clone 5) VH: QVQLKESGPGLVQPSQTLSLTCTVSGFSLTSYHVSWVRQPPGKGLEWMGVIWTGGSTTYNSLLKSRLSISRDISKSQVFLKMNSLQTEDTATYYCARGGTVVKGGFAYWGQGTLVTVSS VL: DIQMTQSPASLSASLEEIVTITCQASQDIGNRLSWYQQKPGKSPQLLIYGATSLADGVPSRFSGSRSGTQYSLKISRLQVEDIGIYYCLQAYSTPLTFGSGTKLEIK",-6.8,729,47.3,366,35.7,504,-4.39,925,-5.77,990,-11.2,1000,-17.2,1140,-7.11,1080,-6.62,845,1.51,44.9,MFI [11]: 413; % Blocking [12]: 47.1%; MFI [12]: 355; % Blocking [13]: -8.53%; MFI [13]: 1200; % Blocking [14]: 39.7%; MFI [14]: 395

# Second part, led by results:
% Blocking [1] [%],MFI [1],% Blocking [2] [%],MFI [2],% Blocking [3] [%],MFI [3],% Blocking [4] [%],MFI [4],% Blocking [5] [%],MFI [5],% Blocking [6] [%],MFI [6],% Blocking [7] [%],MFI [7],% Blocking [8] [%],MFI [8],% Blocking [9] [%],MFI [9],% hCCR8-Ba/F3 - THP-1 complexes [10] [%],% Blocking [11] [%],Binder,other results
-42.8,975,-39.7,970,-30.7,1020,-413,4550,27.4,680,37.7,562,-0.1,977,-36.6,1380,-15.9,919,1.16,-35.7,"AB13 (antibody, V domains shown, Hybridoma monoclonal; also called antibody 13; clone 13) VH: EVQLVETGGGLVQPKGSLKLSCAASGFTFNAYAMNWVRQAPGKGLEWVARIRTKSNNYATYYADSVKDRFTISRDDSQTMLYLQMNNLKTEDTAMYYCVRDRATVTTGRAMDYWGQGTSVTVSS VL: DIVMTQAAPSLPVTPGESVSISCRSSKSLLHSNGNTYLYWFLQRAGQSPQLLIYRMSNLASGVPDRFSGSGSGTAFTLRISRVEAEDVGVYYCMQHLEYPFTFGSGTKLEIK",MFI [11]: 1020; % Blocking [12]: -54.3%; MFI [12]: 1030; % Blocking [13]: 12.2%; MFI [13]: 972; % Blocking [14]: -41.5%; MFI [14]: 927
-45.6,994,-61.4,1120,-35.7,1060,38.4,546,-3.67,971,20.9,713,34.1,643,1.55,992,19.4,639,1.07,-29.4,"AB15 (antibody, V domains shown, Hybridoma monoclonal; also called antibody 15; clone 15) VH: EVQLVESGGGLVQPKGSLKLSCAASGFTFNTYAMNWVRQAPGKGLEWVARIRSKSNNYATYYVDSVKDRFTISRDDSQSMLYLQINNLKTEDTAMYYCVRGRELGPYSAMDYWGQGTSVTVSS VL: DIVMTQAAPSVPVTPGESVSISCRSSKSLLHSNGNTYLYWFLQRPGQSPQLLIYRMSNLASGVPDRFSGSGSGTAFTLRISRVEAEDVGLYYCMQHLEYPFTFGGGTKLEIK",MFI [11]: 970; % Blocking [12]: -60.8%; MFI [12]: 1080; % Blocking [13]: -0.05%; MFI [13]: 1110; % Blocking [14]: -51.8%; MFI [14]: 995

# — US20240360228A1 (BIOLEGEND, published 2024)
